According to patent US20190322705A1 (NORWEGIAN UNIVERSITY OF LIFE SCIENCES, published 2019):

How the values were obtained:
Assay in all cases: cell-based or functional assay
[1] = target: RseP of E. faecalis E19>A, expressed in S. pneumoniae ms2 (Enterococcus faecalis) (UniProt Q9RPP2)
[2] = target: RseP of E. faecalis HExxH>AAxxA, expressed in S. pneumoniae ms5 (Enterococcus faecalis) (UniProt Q9RPP2)
[3] = target: RseP of E. faecalis H18>A, expressed in S. pneumoniae ms1 (Enterococcus faecalis) (UniProt Q9RPP2)
[4] = target: RseP of E. faecalis H22>A, expressed in S. pneumoniae ms3 (Enterococcus faecalis) (UniProt Q9RPP2)
[5] = target: RseP of E. faecalis LMGT3358 (WT rseP), expressed in S. pneumoniae ds220 (Enterococcus faecalis) (UniProt Q9RPP2)
[6] = target: RseP of E. faecalis Y24>A, expressed in S. pneumoniae ms4 (Enterococcus faecalis) (UniProt Q9RPP2)
[7] = target: T1, RseP of E. faecalis HExxH>AAxxA, expressed in S. pneumoniae ms5 (Enterococcus faecalis, UniProt Q9RPP2 1-422)
T1 sequence: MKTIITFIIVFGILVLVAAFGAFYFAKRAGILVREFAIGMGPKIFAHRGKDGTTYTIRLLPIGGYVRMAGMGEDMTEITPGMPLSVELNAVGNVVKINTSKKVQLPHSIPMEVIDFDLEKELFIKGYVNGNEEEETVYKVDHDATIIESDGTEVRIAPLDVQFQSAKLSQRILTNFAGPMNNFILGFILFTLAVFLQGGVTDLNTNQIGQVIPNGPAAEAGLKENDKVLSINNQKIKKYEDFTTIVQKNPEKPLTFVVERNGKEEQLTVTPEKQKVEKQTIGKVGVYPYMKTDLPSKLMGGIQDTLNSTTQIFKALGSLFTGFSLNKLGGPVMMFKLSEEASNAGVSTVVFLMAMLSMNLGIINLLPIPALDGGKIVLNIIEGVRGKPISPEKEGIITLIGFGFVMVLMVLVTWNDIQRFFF

LsbB (peptide)
> 7000 nM: MIC (nM), S. pneumoniae ms2 [1] | MIC (nM), S. pneumoniae ms5 [2] | MIC (nM), S. pneumoniae ms1 [3] | MIC (nM), S. pneumoniae ms3 [4] | MIC (nM), S. pneumoniae ds220 induced [5] | MIC (nM), S. pneumoniae ms4 [6]

B1: EntEJ97 (peptide)
peptide: MLAKIKAMIKKFPNPYTLAAKLTTYEINWYKQQYGRYPWERPVA
30 times: fold resistance against the WT RseP strain [7]
